Laboratory results: article PMC12613123, “Fabrication of Disposable Thin-Film Electrodes via Shadow Mask Technique for Sensitive Point-of-Care Detection of C‑Reactive Protein, a Sepsis Biomarker”

Molecular target: T1, C-reactive protein (CRP) (UniProt P02741 19-224)
T1 sequence: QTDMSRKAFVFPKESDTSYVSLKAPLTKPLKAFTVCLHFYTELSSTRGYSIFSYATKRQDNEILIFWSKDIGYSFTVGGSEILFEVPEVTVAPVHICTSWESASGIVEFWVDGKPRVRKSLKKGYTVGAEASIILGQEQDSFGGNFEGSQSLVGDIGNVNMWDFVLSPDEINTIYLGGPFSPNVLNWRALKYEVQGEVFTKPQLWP
Test: electrochemical aptasensor (CV, EIS); aptamer/MCH on gold thin-film electrode; ferro-/ferricyanide; CRP 0.02-0.9 ng/mL; Rct 1.78 to 2.8 kOhm; LOD 6.5 pg/mL (not a Kd); ferro-/ferricyanide redox couple; buffer, salt, pH and temperature not given in the held text (aptamer immobilization at 2-4 C)
Conditions: chain copies: 5

B1: CRP aptamer (44 nt) (ssDNA)
DNA: GCCTGTAAGGTGGTCGGTGTGGCGAGTGTGTTAGGAGAGATTGC
modifications: 5' HO-(CH2)6-S-S-(CH2)6 thiol linker (TCEP reduced), immobilized on gold with MCH backfill
binding result: binds
